The results in this text go back to article PMC11475653.

The conditions of the data set: ubiquitination at K45.

As to AMBRA1: K45R, the degradation_or_half_life entry is on record as “decreases”.
